Measured values reported in the supplement of paper PMC9112550, “Optimization of the antimicrobial peptide Bac7 by deep mutational scanning” (BMC Biology, 2022).

Test system: Escherichia coli TOP10
Experiment: shrunken log2 fold change of peptide-encoding DNA abundance (4.5 h post-induction vs induction); higher = less antimicrobial activity (less host growth inhibition)
Conditions: time post-induction: 4.5 h; library: site-saturation at positions 5, 18, 19, 20
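Note: peptides expressed intracellularly from a pBAD plasmid library in pooled LB shake-flask culture, induced with 0.3% L-arabinose, DNA abundance read by NGS, three biological replicates, DESeq2 with apeglm shrinkage.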

Sequence | shrunken log2 fold change
RRIRERPPRLPRPRPRPWMAPRP | -0.0227
RRIRVRPPRLPRPRPRPIMFPRP | -0.0691
RRIRSRPPRLPRPRPRPPQWPRP | 0.504
RRIRLRPPRLPRPRPRPNWGPRP | 0.00356
RRIRRRPPRLPRPRPRPCACPRP | -0.0784
RRIRGRPPRLPRPRPRPERQPRP | 0.101
RRIRQRPPRLPRPRPRPSCEPRP | 0.0555
RRIRSRPPRLPRPRPRPFCPPRP | -0.31
RRIRLRPPRLPRPRPRPRASPRP | 0.516
RRIRNRPPRLPRPRPRPYREPRP | 0.0155
RRIRFRPPRLPRPRPRPATYPRP | -0.191
RRIRCRPPRLPRPRPRPWMVPRP | -0.559
RRIRTRPPRLPRPRPRPCTIPRP | -0.456
RRIRFRPPRLPRPRPRPYEKPRP | -0.075
RRIRMRPPRLPRPRPRPQECPRP | 0.313
RRIRARPPRLPRPRPRPRIEPRP | 0.309
RRIRHRPPRLPRPRPRPSRKPRP | 0.094
RRIRHRPPRLPRPRPRPPALPRP | -0.00181
RRIRQRPPRLPRPRPRPKQDPRP | 0.0446
RRIRNRPPRLPRPRPRPKWPPRP | 0.208
RRIRYRPPRLPRPRPRPNSLPRP | -1.11
RRIRYRPPRLPRPRPRPKHLPRP | -0.155
RRIRNRPPRLPRPRPRPVDCPRP | -0.209
RRIRRRPPRLPRPRPRPNKWPRP | 0.0315
RRIRDRPPRLPRPRPRPQDMPRP | -0.628

Sequence | shrunken log2 fold change
RRIRKRPPRLPRPRPRPTTCPRP | 0.273
RRIRARPPRLPRPRPRPNARPRP | 0.124
RRIRWRPPRLPRPRPRPFEAPRP | 0.253
RRIRFRPPRLPRPRPRPYKWPRP | -0.298
RRIRFRPPRLPRPRPRPLGNPRP | -0.215
RRIRRRPPRLPRPRPRPERLPRP | 0.474
RRIRYRPPRLPRPRPRPPHPPRP | -0.187
RRIRSRPPRLPRPRPRPHGYPRP | -0.244
RRIRWRPPRLPRPRPRPMEFPRP | -0.145
RRIRHRPPRLPRPRPRPREYPRP | -0.0589
RRIRWRPPRLPRPRPRPTPSPRP | 0.564
RRIRVRPPRLPRPRPRPHCYPRP | -0.234
RRIRPRPPRLPRPRPRPSNLPRP | -0.823
RRIRIRPPRLPRPRPRPKQKPRP | -0.12
RRIRVRPPRLPRPRPRPFDCPRP | -0.0718
RRIRHRPPRLPRPRPRPTEHPRP | -0.243
RRIRTRPPRLPRPRPRPSMVPRP | -0.0429
RRIRTRPPRLPRPRPRPTFLPRP | -0.0937
RRIRRRPPRLPRPRPRPNINPRP | -0.156
RRIRYRPPRLPRPRPRPIYHPRP | -0.85
RRIRQRPPRLPRPRPRPKQTPRP | -0.0544
RRIRHRPPRLPRPRPRPCFDPRP | -0.00612
RRIRTRPPRLPRPRPRPRVMPRP | 0.0867
RRIRPRPPRLPRPRPRPHWAPRP | -0.0709
RRIRRRPPRLPRPRPRPWLGPRP | 0.353

Sequence | shrunken log2 fold change
RRIRFRPPRLPRPRPRPSKTPRP | 0.0514
RRIRTRPPRLPRPRPRPMGCPRP | -0.145
RRIRCRPPRLPRPRPRPWKMPRP | -0.0124
RRIRYRPPRLPRPRPRPRFSPRP | -0.144
RRIRPRPPRLPRPRPRPNPIPRP | -0.237
RRIRKRPPRLPRPRPRPYWKPRP | 0.0282
RRIRNRPPRLPRPRPRPCVDPRP | 0.037
RRIRGRPPRLPRPRPRPTWRPRP | 0.673
RRIRDRPPRLPRPRPRPTAPPRP | 0.365
RRIRSRPPRLPRPRPRPESPPRP | 0.32
RRIRYRPPRLPRPRPRPVVIPRP | -0.868
RRIRMRPPRLPRPRPRPMCFPRP | 0.271
RRIRCRPPRLPRPRPRPNNTPRP | -0.737
RRIRSRPPRLPRPRPRPAGWPRP | 0.795
RRIRTRPPRLPRPRPRPFNKPRP | 0.0555
RRIRIRPPRLPRPRPRPMYHPRP | -0.839
RRIRLRPPRLPRPRPRPCRYPRP | -0.0582
RRIRSRPPRLPRPRPRPGDTPRP | 1.51
RRIRFRPPRLPRPRPRPPNFPRP | -0.22
RRIRIRPPRLPRPRPRPYYWPRP | -0.449
RRIRPRPPRLPRPRPRPMCQPRP | 0.27
RRIRKRPPRLPRPRPRPLSYPRP | -0.0509
RRIRVRPPRLPRPRPRPCTCPRP | -0.00748
RRIRPRPPRLPRPRPRPNWSPRP | 0.0504
RRIRGRPPRLPRPRPRPTGMPRP | 0.851

Sequence | shrunken log2 fold change
RRIRTRPPRLPRPRPRPRMKPRP | 0.0156
RRIRVRPPRLPRPRPRPMIWPRP | -0.179
RRIRTRPPRLPRPRPRPIAFPRP | -0.0138
RRIRCRPPRLPRPRPRPKRLPRP | 0.0169
RRIRARPPRLPRPRPRPIVDPRP | 0.543
RRIRKRPPRLPRPRPRPSCWPRP | 0.244
RRIRIRPPRLPRPRPRPNEKPRP | -0.0849
RRIRDRPPRLPRPRPRPVNKPRP | -0.0502
RRIRQRPPRLPRPRPRPRRMPRP | 0.455
RRIRYRPPRLPRPRPRPEVCPRP | -0.0334
RRIRIRPPRLPRPRPRPADKPRP | -0.194
RRIRNRPPRLPRPRPRPRNCPRP | -0.0144
RRIRIRPPRLPRPRPRPGLMPRP | -0.0194
RRIRERPPRLPRPRPRPGTPPRP | 0.0316
RRIRRRPPRLPRPRPRPRCKPRP | 0.358
RRIRMRPPRLPRPRPRPGDGPRP | 0.864
RRIRIRPPRLPRPRPRPNWCPRP | -0.26
RRIRTRPPRLPRPRPRPTGHPRP | 0.131
RRIRGRPPRLPRPRPRPWNPPRP | -0.448
RRIRVRPPRLPRPRPRPSKQPRP | -0.201
RRIRLRPPRLPRPRPRPFPCPRP | 0.0233
RRIRLRPPRLPRPRPRPDCKPRP | 0.0852
RRIRYRPPRLPRPRPRPQTSPRP | -1.22
RRIRSRPPRLPRPRPRPIPGPRP | -0.0336
RRIRHRPPRLPRPRPRPTIPPRP | -0.028

Sequence | shrunken log2 fold change
RRIRGRPPRLPRPRPRPPYPPRP | 0.291
RRIRNRPPRLPRPRPRPSRDPRP | -0.129
RRIRSRPPRLPRPRPRPTKIPRP | 0.00311
RRIRHRPPRLPRPRPRPYHCPRP | -0.316
RRIRPRPPRLPRPRPRPDLGPRP | 0.215
RRIRARPPRLPRPRPRPKDFPRP | -0.0146
RRIRVRPPRLPRPRPRPIPQPRP | 0.485
RRIRYRPPRLPRPRPRPSWFPRP | -0.942
RRIRPRPPRLPRPRPRPSIWPRP | -0.11
RRIRKRPPRLPRPRPRPVRSPRP | 2.24
RRIRERPPRLPRPRPRPGNTPRP | -0.089
RRIRCRPPRLPRPRPRPIHCPRP | -0.0192
RRIRKRPPRLPRPRPRPWCQPRP | -0.0158
RRIRPRPPRLPRPRPRPFVTPRP | -0.102
RRIRYRPPRLPRPRPRPPHSPRP | -0.699
RRIRGRPPRLPRPRPRPCTDPRP | 0.522
RRIRMRPPRLPRPRPRPDHDPRP | -0.0765
RRIRGRPPRLPRPRPRPISGPRP | 0.000749
RRIRHRPPRLPRPRPRPIGNPRP | -0.199
RRIRHRPPRLPRPRPRPVILPRP | -1.12
RRIRERPPRLPRPRPRPIWRPRP | 0.0579
RRIRLRPPRLPRPRPRPQTKPRP | -0.201
RRIRVRPPRLPRPRPRPLNPPRP | -0.113
RRIRQRPPRLPRPRPRPMKDPRP | -0.447
RRIRLRPPRLPRPRPRPAQEPRP | -0.023

Sequence | shrunken log2 fold change
RRIRRRPPRLPRPRPRPDLAPRP | 0.197
RRIRGRPPRLPRPRPRPDRMPRP | -0.107
RRIRGRPPRLPRPRPRPGVPPRP | 1
RRIRKRPPRLPRPRPRPYSDPRP | 0.0075
RRIRPRPPRLPRPRPRPHNAPRP | -0.284
RRIRSRPPRLPRPRPRPNVSPRP | -0.0656
RRIRPRPPRLPRPRPRPKAGPRP | 0.285
RRIRRRPPRLPRPRPRPEIDPRP | -0.00263
RRIRIRPPRLPRPRPRPWWPPRP | 0.027
RRIRHRPPRLPRPRPRPLTVPRP | -0.0423
RRIRYRPPRLPRPRPRPTPWPRP | -0.145
RRIRYRPPRLPRPRPRPMLHPRP | -0.404
RRIRRRPPRLPRPRPRPEPRPRP | 1.02
RRIRPRPPRLPRPRPRPHNGPRP | -0.0321
RRIRLRPPRLPRPRPRPRQDPRP | 0.152
RRIRLRPPRLPRPRPRPWARPRP | 0.482
RRIRNRPPRLPRPRPRPEIPPRP | -0.113
RRIRPRPPRLPRPRPRPNTVPRP | -0.411
RRIRDRPPRLPRPRPRPRTLPRP | 0.14
RRIRWRPPRLPRPRPRPMIPPRP | 0.0901
RRIRPRPPRLPRPRPRPASHPRP | 0.0473
RRIRERPPRLPRPRPRPELRPRP | 0.0526
RRIRARPPRLPRPRPRPNVPPRP | 0.0126
RRIRPRPPRLPRPRPRPRDIPRP | -0.191
RRIRPRPPRLPRPRPRPFNGPRP | -0.014
